Reference: the supplement of paper PMC6757056
± gives the standard deviation of the averaged measurements.

B1: library; a variant is named by its letters at N, in order (parent)
chain: GCUGUCACCGGUGUAUUACCCUAGUGGUCGACCGGUCUGAUGAGUCUNNNNNNAGACGAAACAGC

What was measured:
[1] = variants of: B1; experiment: FACS-Seq fitted mean relative fluorescence mCherry/BFP without ligand (log10 relative fluorescence); ligand: hypoxanthine (xanthine aptamer); higher = higher reporter protein expression; conditions: HEK293T, ligand present: no
Procedure, shortened: (§1)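 The ribozyme switch sat in an mCherry reporter, delivered by lentivirus into HEK293T libraries along with an EF1α-BFP marker. Enriched cells were incubated 48 h with or without ligand, sorted into 6 bins by mCherry/BFP, and bin genomic DNA was PCR-amplified, barcoded and MiSeq-sequenced. Fluorescence equals the fitted normal mean of the bin counts after normalization. Those log10(mCherry/BFP) means were scaled to five spiked-in control ribozymes.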

[2] = variants of: B1; experiment: normalized RNA/DNA level with ligand (relative to sTRSVctl = 100) (log10 (% of sTRSVctl)); ligand: hypoxanthine (xanthine aptamer); higher = less ribozyme self-cleavage, higher mRNA level; conditions: ligand concentration (+) RNA-Seq: 5 mM, HEK293T, reporter: mCherry (pCS4076), ligand present: yes
Procedure, shortened: (§2)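 Total RNA, extracted with EDTA 72 h after HEK293T cells were transfected with 4 µg per 6-well well of reporter-linked ribozyme switch library plasmids, was reverse-transcribed, amplified, barcoded and sequenced. Ligand, if used, was added 1 h before transfection. RNA level was derived from RNA reads divided by DNA reads and normalized to a spiked-in non-cleaving sequence or to the top sequences. This was multiplied by 100 and log10-transformed, with the top set of 25 sequences and a ≥100 DNA read minimum.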

[3] = variants of: B1; experiment: normalized RNA/DNA level without ligand (relative to sTRSVctl = 100) (log10 (% of sTRSVctl)); ligand: hypoxanthine (xanthine aptamer); higher = less ribozyme self-cleavage, higher mRNA level; conditions: HEK293T, reporter: mCherry (pCS4076), ligand present: no
Procedure, shortened: as §2

[4] = variants of: B1; experiment: FACS-Seq fitted mean relative fluorescence mCherry/BFP with ligand (log10 relative fluorescence); ligand: hypoxanthine (xanthine aptamer); ligand concentration (+) FACS-Seq: 5 mM; higher = higher reporter protein expression; conditions: HEK293T, ligand present: yes
Procedure, shortened: as §1

Variant	FACS-Seq fitted mean (log10) [1]	normalized RNA/DNA level with ligand (log10) [2]	normalized RNA/DNA level without ligand (log10) [3]	FACS-Seq fitted mean (log10) [4]
GCUGUCACCGGUGUAUUACCCUAGUGGUCGACCGGUCUGAUGAGUCUUAACGUAGACGAAACAGC [UAACGU]	0.145 ± 0.021	1.914 ± 0.01	1.61 ± 0.038	0.365 ± 0.051
GCUGUCACCGGUGUAUUACCCUAGUGGUCGACCGGUCUGAUGAGUCUCGAUGGAGACGAAACAGC [CGAUGG]	0.217 ± 0.024	1.89 ± 0.029	1.42 ± 0.087	0.628 ± 0.045
GCUGUCACCGGUGUAUUACCCUAGUGGUCGACCGGUCUGAUGAGUCUUGUAAGAGACGAAACAGC [UGUAAG]	0.327 ± 0.084	1.9 ± 0.033	1.67 ± 0.063	0.586 ± 0.075
GCUGUCACCGGUGUAUUACCCUAGUGGUCGACCGGUCUGAUGAGUCUGAGACAAGACGAAACAGC [GAGACA]	0.3113 ± 0.00099	1.905 ± 0.0057	1.68 ± 0.029	0.548 ± 0.014
GCUGUCACCGGUGUAUUACCCUAGUGGUCGACCGGUCUGAUGAGUCUUUAUUAAGACGAAACAGC [UUAUUA]	0.289 ± 0.0048	1.96 ± 0.086	1.91 ± 0.062	0.398 ± 0.036
GCUGUCACCGGUGUAUUACCCUAGUGGUCGACCGGUCUGAUGAGUCUACGUGAAGACGAAACAGC [ACGUGA]	-0.0934 ± 0.0088	1.808 ± 0.01	1.17 ± 0.023	0.256 ± 0.055
GCUGUCACCGGUGUAUUACCCUAGUGGUCGACCGGUCUGAUGAGUCUAUCGAUAGACGAAACAGC [AUCGAU]	0.371 ± 0.032	1.9 ± 0.025	1.669 ± 0.0035	0.284 ± 0.033
GCUGUCACCGGUGUAUUACCCUAGUGGUCGACCGGUCUGAUGAGUCUGGAAGCAGACGAAACAGC [GGAAGC]	0.167 ± 0.013	1.77 ± 0.033	1.297 ± 0.0033	0.358 ± 0.042
GCUGUCACCGGUGUAUUACCCUAGUGGUCGACCGGUCUGAUGAGUCUGGCAUGAGACGAAACAGC [GGCAUG]	0.213 ± 0.11	1.88 ± 0.058	1.45 ± 0.042	0.621 ± 0.098
GCUGUCACCGGUGUAUUACCCUAGUGGUCGACCGGUCUGAUGAGUCUGCGGGGAGACGAAACAGC [GCGGGG]	0.17 ± 0.0079	1.96 ± 0.031	1.56 ± 0.026	0.433 ± 0.03
GCUGUCACCGGUGUAUUACCCUAGUGGUCGACCGGUCUGAUGAGUCUGAAUAAAGACGAAACAGC [GAAUAA]	0.317 ± 0.056	1.91 ± 0.04	1.78 ± 0.0034	0.497 ± 0.03
GCUGUCACCGGUGUAUUACCCUAGUGGUCGACCGGUCUGAUGAGUCUGAUAGAAGACGAAACAGC [GAUAGA]	0.3713 ± 0.0031	1.89 ± 0.052	1.592 ± 0.01	0.547 ± 0.025
GCUGUCACCGGUGUAUUACCCUAGUGGUCGACCGGUCUGAUGAGUCUGGGUGGAGACGAAACAGC [GGGUGG]	-0.2387 ± 0.0022	1.91 ± 0.046	1.54 ± 0.05	0.3262 ± 0.0019
GCUGUCACCGGUGUAUUACCCUAGUGGUCGACCGGUCUGAUGAGUCUAGCAAUAGACGAAACAGC [AGCAAU]	0.645 ± 0.018	1.9127 ± 0.00078	1.8332 ± 0.00014	0.608 ± 0.03
GCUGUCACCGGUGUAUUACCCUAGUGGUCGACCGGUCUGAUGAGUCUAUAAAUAGACGAAACAGC [AUAAAU]	0.431 ± 0.027	1.9 ± 0.035	1.7593 ± 0.00014	0.576 ± 0.017
GCUGUCACCGGUGUAUUACCCUAGUGGUCGACCGGUCUGAUGAGUCUUGGCUUAGACGAAACAGC [UGGCUU]	0.674 ± 0.017	1.97 ± 0.02	1.94 ± 0.03	0.66 ± 0.06
GCUGUCACCGGUGUAUUACCCUAGUGGUCGACCGGUCUGAUGAGUCUUCCUACAGACGAAACAGC [UCCUAC]	0.76 ± 0.022	2.01 ± 0.096	1.88 ± 0.076	0.751 ± 0.058
GCUGUCACCGGUGUAUUACCCUAGUGGUCGACCGGUCUGAUGAGUCUUCCCGUAGACGAAACAGC [UCCCGU]	0.434 ± 0.043	1.934 ± 0.0021	1.703 ± 0.015	0.554 ± 0.048
GCUGUCACCGGUGUAUUACCCUAGUGGUCGACCGGUCUGAUGAGUCUCAGAAAAGACGAAACAGC [CAGAAA]	0.22 ± 0.05	1.874 ± 0.00091	1.58 ± 0.062	0.32 ± 0.027
GCUGUCACCGGUGUAUUACCCUAGUGGUCGACCGGUCUGAUGAGUCUUAUGGUAGACGAAACAGC [UAUGGU]	0.514 ± 0.064	1.88 ± 0.036	1.527 ± 0.004	0.643 ± 0.029
GCUGUCACCGGUGUAUUACCCUAGUGGUCGACCGGUCUGAUGAGUCUUUGCGGAGACGAAACAGC [UUGCGG]	-0.08 ± 0.07	1.99 ± 0.062	1.91 ± 0.044	-0.606 ± 0.083
